Test results published in the Human Domainome abundance scans (Beltran et al. 2025).
± gives the uncertainty stated by the source.

B1: Tripartite motif-containing protein 44, residues 174 to 218; numbered along this chain, Q96DX7 (parent)
chain: VAKRKCPDHGLDLSTYCQEDRQLICVLCPVIGAHQGHQLSTLDEA

Variants of: B1
Test: abundance fitness (aPCA) (normalised: wild type 0, dead -1); higher = more abundant; growth selection in yeast, the domain comes from the species named
Conditions: Homo sapiens

| Variant | abundance fitness |
| --- | --- |
| VAKRKCPDHGLDLSTYCQEDRQLICVLCPVIGAHMGHQLSTLDEA [Q35M] | -0.031 ± 0.033 |
| VAKRKCPDHGLDLSTYCQEDRQLICVLCPVIGAHSGHQLSTLDEA [Q35S] | -0.063 ± 0.027 |
| VAKRKCPDHGLDLSTYCQEDRQLICVLCPVIGAHGGHQLSTLDEA [Q35G] | -0.152 ± 0.025 |
| VAKRKCPDHGLDLSTYCQEDRQLICVLCPVIGAHKGHQLSTLDEA [Q35K] | 0.002 ± 0.037 |
| VAKRKCPDHGLDLSTYCQEDRQLICVLCPVIGAHLGHQLSTLDEA [Q35L] | -0.105 ± 0.027 |
| VAKRKCPDHGLDLSTYCQEDRQLICVLCPVIGAHDGHQLSTLDEA [Q35D] | -0.143 ± 0.035 |
| VAKRKCPDHGLDLSTYCQEDRQLICVLCPVIGAHNGHQLSTLDEA [Q35N] | -0.092 ± 0.044 |
| VAKRKCPDHGLDLSTYCQEDRQLICVLCPVIGAHCGHQLSTLDEA [Q35C] | -0.089 ± 0.031 |
| VAKRKCPDHGLDLSTYCQEDRQLICVLCPVIGAHIGHQLSTLDEA [Q35I] | -0.045 ± 0.036 |
| VAKRKCPDHGLDLSTYCQEDRQLICVLCPVIGAHWGHQLSTLDEA [Q35W] | -0.186 ± 0.029 |
| VAKRKCPDHGLDLSTYCQEDRQLICVLCPVIGAHRGHQLSTLDEA [Q35R] | -0.1 ± 0.026 |
| VAKRKCPDHGLDLSTYCQEDRQLICVLCPVIGAHAGHQLSTLDEA [Q35A] | -0.054 ± 0.027 |
| VAKRKCPDHGLDLSTYCQEDRQLICVLCPVIGWHQGHQLSTLDEA [A33W] | -0.148 ± 0.032 |
| VAKRKCPDHGLDLSTYCQEDRQLICVLCPVIGHHQGHQLSTLDEA [A33H] | -0.031 ± 0.039 |
| VAKRKCPDHGLDLSTYCQEDRQLICVLCPVIGNHQGHQLSTLDEA [A33N] | -0.014 ± 0.042 |
| VAKRKCPDHGLDLSTYCQEDRQLICVLCPVIGKHQGHQLSTLDEA [A33K] | -0.006 ± 0.032 |
| VAKRKCPDHGLDLSTYCQEDRQLICVLCPVIGVHQGHQLSTLDEA [A33V] | -0.05 ± 0.028 |
| VAKRKCPDHGLDLSTYCQEDRQLICVLCPVIGEHQGHQLSTLDEA [A33E] | -0.032 ± 0.031 |
| VAKRKCPDHGLDLSTYCQEDRQLICVLCPVIGCHQGHQLSTLDEA [A33C] | -0.048 ± 0.035 |

| Variant | abundance fitness |
| --- | --- |
| VAKRKCPDHGLDLSTYCQEDRQLICVLCPVIGSHQGHQLSTLDEA [A33S] | 0.019 ± 0.029 |
| VAKRKCPDHGLDLSTYCQEDRQLICVLCPVIGLHQGHQLSTLDEA [A33L] | -0.079 ± 0.027 |
| VAKRKCPDHGLDLSTYCQEDRQLICVLCPVIGDHQGHQLSTLDEA [A33D] | -0.068 ± 0.032 |
| VAKRKCPDHGLDLSTYCQEDRQLICVLCPVIGIHQGHQLSTLDEA [A33I] | -0.031 ± 0.045 |
| VAKRKCPDHGLDLSTYCQEDRQLICVLCPVIGYHQGHQLSTLDEA [A33Y] | -0.094 ± 0.046 |
| VAKRKCPDHGLDLSTYCQEDRQLICVLCPVIGAHQGHHLSTLDEA [Q38H] | 0.024 ± 0.045 |
| VAKRKCPDHGLDLSTYCQEDRQLICVLCPVIGAHQGHKLSTLDEA [Q38K] | 0.03 ± 0.031 |
| VAKRKCPDHGLDLSTYCQEDRQLICVLCPVIGAHQGHLLSTLDEA [Q38L] | -0.061 ± 0.03 |
| VAKRKCPDHGLDLSTYCQEDRQLICVLCPVIGAHQGHELSTLDEA [Q38E] | 0.007 ± 0.028 |
| VAKRKCPDHGLDLSTYCQEDRQLICVLCPVIGAHQGHPLSTLDEA [Q38P] | -0.03 ± 0.032 |
| VAKRKCPDHGLDLSTYCQEDRQLICVLCPVIGAHQGHALSTLDEA [Q38A] | -0.032 ± 0.028 |
| VAKRKCPDHGLDLSTYCQEDRQLICVLCPVIGAHQGHILSTLDEA [Q38I] | -0.045 ± 0.047 |
| VAKRKCPDHGLDLSTYCQEDRQLICVLCPVIGAHQGHCLSTLDEA [Q38C] | -0.051 ± 0.037 |
| VAKRKCPDHGLDLSTYCQEDRQLICVLCPVIGAHQGHDLSTLDEA [Q38D] | 0.036 ± 0.04 |
| VAKRKCPDHGLDLSTYCQEDRQLICVLCPVIGAHQGHNLSTLDEA [Q38N] | 0.029 ± 0.035 |
| VAKRKCPDHGLDLSTYCQEDRQLICVLCPVIGAHQGHGLSTLDEA [Q38G] | -0.009 ± 0.026 |
| VAKRKCPDHGLDLSTYCQEDRQLICVLCPVIGAHQGHFLSTLDEA [Q38F] | -0.079 ± 0.047 |
| VAKRKCPDHGLDLSTYCQEDRQLICVLCPVIGAHQGHMLSTLDEA [Q38M] | 0 ± 0.032 |
| VAKRKCPDHGLDLSTYCQEDRQLICVLCPVWGAHQGHQLSTLDEA [I31W] | -0.13 ± 0.029 |

| Variant | abundance fitness |
| --- | --- |
| VAKRKCPDHGLDLSTYCQEDRQLICVLCPVYGAHQGHQLSTLDEA [I31Y] | -0.077 ± 0.043 |
| VAKRKCPDHGLDLSTYCQEDRQLICVLCPVIGAHQHHQLSTLDEA [G36H] | -0.033 ± 0.046 |
| VAKRKCPDHGLDLSTYCQEDRQLICVLCPVIGAHQKHQLSTLDEA [G36K] | -0.128 ± 0.033 |
| VAKRKCPDHGLDLSTYCQEDRQLICVLCPVIGAHQYHQLSTLDEA [G36Y] | -0.363 ± 0.067 |
| VAKRKCPDHGLDLSTYCQEDRQLICVLCPVIGAHQQHQLSTLDEA [G36Q] | -0.088 ± 0.032 |
| VAKRKCPDHGLDLSTYCQEDRQLICVLCPVIGAHQLHQLSTLDEA [G36L] | -0.266 ± 0.028 |
| VAKRKCPDHGLDLSTYCQEDRQLICVLCPVIGAHQCHQLSTLDEA [G36C] | -0.172 ± 0.035 |
| VAKRKCPDHGLDLSTYCQEDRQLICVLCPVIGAHQSHQLSTLDEA [G36S] | -0.117 ± 0.03 |
| VAKRKCPDHGLDLSTYCQEDRQLICVLCPVIGAHQAHQLSTLDEA [G36A] | -0.131 ± 0.028 |
| VAKRKCPDHGLDLSTYCQEDRQLICVLCPVIGAHQIHQLSTLDEA [G36I] | -0.623 ± 0.13 |
| VAKRKCPDHGLDLSTYCQEDRQLICVLCPVIGAHQWHQLSTLDEA [G36W] | -0.409 ± 0.03 |
| VAKRKCPDHGLDLSTYCQEDRQLICVLCPVIGAHQEHQLSTLDEA [G36E] | -0.048 ± 0.029 |
| VAKRKCPDHGLDLSTYCQEDRQLICVLCPVIGAHQFHQLSTLDEA [G36F] | -0.193 ± 0.059 |
| VAKRKCPDHGLDLSTYCQEDRQLICVLCPVIGAHQPHQLSTLDEA [G36P] | -0.561 ± 0.044 |
| VAKRKCPDHGLDLSTYCQEDRQLICVLCPVIGAHQNHQLSTLDEA [G36N] | -0.007 ± 0.052 |
| VAKRKCPDHGLDLSTYCQEDRQLICVLCPVIGAHQDHQLSTLDEA [G36D] | -0.071 ± 0.047 |
| VAKRKCPDHGLDLSTYCQEDRQLICVLCPVIGAHQMHQLSTLDEA [G36M] | -0.245 ± 0.031 |
| VAKRKCPDHGLDLSTYCQEDRQLICVLCPVIGAHQRHQLSTLDEA [G36R] | -0.158 ± 0.026 |
| VAKRKCPDHGLDLSTYCQEDRQLICVLCPVIGAHQVHQLSTLDEA [G36V] | -0.519 ± 0.03 |
